Biological target: Polθ-hel (DNA polymerase theta helicase domain) (human, UniProt O75417 1-894)
Test: EMSA

Polθ-hel (DNA polymerase theta helicase domain), sequence (O75417 1-894): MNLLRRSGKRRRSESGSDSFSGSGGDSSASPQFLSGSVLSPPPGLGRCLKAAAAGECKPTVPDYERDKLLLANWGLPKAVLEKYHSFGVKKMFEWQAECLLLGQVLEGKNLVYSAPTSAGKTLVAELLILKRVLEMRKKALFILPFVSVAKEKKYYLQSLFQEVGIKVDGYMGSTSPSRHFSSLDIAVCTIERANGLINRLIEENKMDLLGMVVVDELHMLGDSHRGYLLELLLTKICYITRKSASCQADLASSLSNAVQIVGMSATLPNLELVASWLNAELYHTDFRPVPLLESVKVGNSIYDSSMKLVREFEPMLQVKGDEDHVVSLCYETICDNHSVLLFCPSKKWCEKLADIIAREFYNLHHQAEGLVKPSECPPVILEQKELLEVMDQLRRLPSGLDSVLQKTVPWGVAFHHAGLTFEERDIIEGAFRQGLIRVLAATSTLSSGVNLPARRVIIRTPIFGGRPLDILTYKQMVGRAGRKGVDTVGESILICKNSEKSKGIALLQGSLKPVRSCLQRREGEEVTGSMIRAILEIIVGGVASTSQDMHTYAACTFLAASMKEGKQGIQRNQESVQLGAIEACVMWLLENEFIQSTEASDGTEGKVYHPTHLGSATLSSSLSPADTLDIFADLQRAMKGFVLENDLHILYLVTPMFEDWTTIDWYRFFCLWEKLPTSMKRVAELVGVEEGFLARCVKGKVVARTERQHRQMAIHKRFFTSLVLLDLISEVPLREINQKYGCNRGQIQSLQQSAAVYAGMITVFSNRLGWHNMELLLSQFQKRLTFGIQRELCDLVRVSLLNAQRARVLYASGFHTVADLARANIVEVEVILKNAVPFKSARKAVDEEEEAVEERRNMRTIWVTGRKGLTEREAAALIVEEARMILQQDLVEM

## TTTTTTTTTTTTTTTTTTTTTTTTTTTTT (ssDNA) [ssDNA RP316]
  binding result: binds

Source: paper PMC11324745
